Data on 15 molecules can be found in US20250320312A1 (OXITOPE PHARMA B V, published 2025).

Holding throughout (experiment): scFv ELISA
Experiment [1] addresses Peptide 1: Biotin-…-[Tyr(PC)]-acid.
Experiment [2] addresses BSA (UniProt P02769).
Experiment [3] has as its target Peptide 5: Biotin-…-[Tyr(PC)]-acid.
For experiment [4], the target named is T1, Peptide 4: Biotin-AGGGGSGGGGSGGGGSAAA-Tyr-acid (N-terminal biotin; C-terminal acid).
T1 construct: control peptide without PC
T1 peptide: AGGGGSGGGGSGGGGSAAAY
In outline: (§1)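 Bound scFv was read as OD450 after HRP–anti-V5 detection, TMB development and HCl stop. PPE with BSA was incubated 1 h at RT on BSA-blocked wells coated overnight at 4° C. with peptide, or on streptavidin wells loaded 1 h with biotinylated PC-peptides at 1 μg/mL.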

The target of experiment [5] is T2, Peptide 8: Biotin-AEAAAKEAAAKEAAAKEAAAKAAA-Tyr-acid (N-terminal biotin; C-terminal acid).
T2 construct: control peptide without PC
T2 peptide: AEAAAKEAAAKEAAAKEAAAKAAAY
In outline:
as §1

BSA, sequence (P02769 25-607 limits assumed): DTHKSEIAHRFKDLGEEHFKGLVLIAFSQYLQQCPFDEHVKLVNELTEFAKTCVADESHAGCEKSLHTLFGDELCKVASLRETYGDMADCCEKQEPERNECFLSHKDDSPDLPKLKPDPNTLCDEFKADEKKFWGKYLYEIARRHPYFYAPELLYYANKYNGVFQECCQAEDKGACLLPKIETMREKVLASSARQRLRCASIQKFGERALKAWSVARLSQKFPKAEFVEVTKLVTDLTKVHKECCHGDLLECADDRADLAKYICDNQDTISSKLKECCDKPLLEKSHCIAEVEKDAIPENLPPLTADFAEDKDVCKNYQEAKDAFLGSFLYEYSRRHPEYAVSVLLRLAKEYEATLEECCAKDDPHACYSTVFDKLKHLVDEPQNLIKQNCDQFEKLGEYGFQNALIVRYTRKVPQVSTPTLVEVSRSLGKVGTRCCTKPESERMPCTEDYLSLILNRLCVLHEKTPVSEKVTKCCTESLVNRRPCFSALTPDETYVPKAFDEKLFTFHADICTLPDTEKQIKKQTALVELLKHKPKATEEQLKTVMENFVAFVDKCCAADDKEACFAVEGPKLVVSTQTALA

B1: PcOxP_DB01_G01 (scFv, V domains shown)
VH: EVQLLESGGGLVQPGGSLRLSCAASGFTGSDFYMEWVRQAPGKGLEWVAASRNKGNSYTTEYADSVKGRFTISRDNSKNTLYLQMNSLRAEDTAVYYCARDYYGSSYWYFDVWGQGTLVTVSS
VL: DIQMTQSPSSLSASVGDRVTITCTASESLYGSKHKVHYLAWYQQKPGKAPKLLIYGASNRYSGVPSRFSGSGSGTDFTLTISSLQPEDFATYYCAQFYSYPLTFGGGTKVEIK
notes: scFv in periplasmic extract
For the molecule B1, the OD450 was 0.58 OD450 in experiment [1]; 0.09 OD450 in experiment [2]; 1.33 OD450 in experiment [3]; 0.06 OD450 in experiment [4]; 0.05 OD450 in experiment [5].

B2: PcOxP_DB02_A10 (scFv, V domains shown)
VH: EVQLLESGGGLVQPGGSLRLSCAASGFAFSDFYMEWVRQAPGKGLEWVAASRNKANDYTTEYADSVKGRFTISRDNSKNTLYLQMNSLRAEDTAVYYCARDYYGSSYWYFDVWGQGTLVTVSS
VL: DIQMTQSPSSLSASVGDRVTITCTASESLYSSKHKVHYLAWYQQKPGKAPKLLIYGASNRQSGVPSRFSGSGSGTDFTLTISSLQPEDFATYYCAQFYAYPLTFGGGTKVEIK
notes: scFv in periplasmic extract
For the molecule B2, the OD450 in experiment [1] is 0.42 OD450; in experiment [2], 0.11 OD450; in experiment [3], 0.9 OD450; in experiment [4], 0.05 OD450; in experiment [5] it was 0.04 OD450.

B3: PcOxP_DB02_A06 (scFv, V domains shown)
VH: EVQLLESGGGLVQPGGSLRLSCAASGFTFSDQYMEWVRQAPGKGLEWVAASRNKANDYTTEYADSVKGRFTISRDNSKNTLYLQMNSLRAEDTAVYYCARDYYGSSYWYFDVWGQGTLVTVSS
VL: DIQMTQSPSSLSASVGDRVTITCTASESLYSSKHKVHYLAWYQQKPGKAPKLLIYGLSNRYIGVPSRFSGSGSGTDFTLTISSLQPEDFATYYCAQFYSYPLTFGGGTKVEIK
notes: scFv in periplasmic extract
For B3, the OD450 was determined as 1.12 OD450 in experiment [1]; 0.1 OD450 in experiment [2]; 1.07 OD450 in experiment [3]; 0.05 OD450 in experiment [4]; 0.05 OD450 in experiment [5].

B4: PcOxP_DB02_A12 (scFv, V domains shown)
VH: EVQLLESGGGLVQPGGSLRLSCAASGFTFSDDYMEWVRQAPGKGLEWVAASRNKANDYTTEYADSVKGRFTISRDNSKNTLYLQMNSLRAEDTAVYYCARDYQGSSYWYFDVWGQGTLVTVSS
VL: DIQMTQSPSSLSASVGDRVTITCTASESLYSSKHKVHYLAWYQQKPGKAPKLLIYGAFNRYTGVPSRFSGSGSGTDFTLTISSLQPEDFATYYCAQFYTYPLTFGGGTKVEIK
notes: scFv in periplasmic extract
As to B4, the OD450 in experiment [1] turned out to be 0.2 OD450; in experiment [2], 0.06 OD450; in experiment [3], 0.27 OD450; in experiment [4] it was 0.05 OD450; in experiment [5] it was 0.06 OD450.

B5: PcOxP_DB01_G09 (scFv, V domains shown)
VH: EVQLLESGGGLVQPGGSLRLSCAASGFTFSDYYMEWVRQAPGKGLEWVAASRNKANTYTTEYADSVKGRFTISRDNSKNTLYLQMNSLRAEDTAVYYCARDYYGSSYWYFDVWGQGTLVTVSS
VL: DIQMTQSPSSLSASVGDRVTITCTASESLYSSKHKVHYLAWYQQKPGKAPKLLIYGASNLYSGVPSRFSGSGSGTDFTLTISSLQPEDFATYYCAQFYSYPLTFGGGTKVEIK
notes: scFv in periplasmic extract
With B5, the OD450 in experiment [1] amounted to 0.92 OD450; in experiment [2] it was 0.11 OD450; in experiment [3] it was 1.4 OD450; in experiment [4] it was 0.06 OD450; in experiment [5], 0.05 OD450.

B6: PcOxP_DB02_B06 (scFv, V domains shown)
VH: EVQLLESGGGLVQPGGSLRLSCAASGFTFSDNYMEWVRQAPGKGLEWVAASRNKANDYTTEYADSVKGRFTISRDNSKNTLYLQMNSLRAEDTAVYYCARDYYGSSYWYFDVWGQGTLVTVSS
VL: DIQMTQSPSSLSASVGDRVTITCTASESLYSSKHKVHYLAWYQQKPGKAPKLLIYGASNRYIGVPSRFSGSGSGTDFTLTISSLQPEDFATYYCTQFYSYPLTFGGGTKVEIK
notes: scFv in periplasmic extract
As to B6, the OD450 in experiment [1] is 0.35 OD450; in experiment [2], 0.11 OD450; in experiment [3], 0.79 OD450; in experiment [4], 0.07 OD450; in experiment [5], 0.04 OD450.

B7: PcOxP_DB01_H10 (scFv, V domains shown)
VH: EVQLLESGGGLVQPGGSLRLSCAASGFTFSDGYMEWVRQAPGKGLEWVAASRNKNNDYTTEYADSVKGRFTISRDNSKNTLYLQMNSLRAEDTAVYYCARDYYGSSYWYFDVWGQGTLVTVSS
VL: DIQMTQSPSSLSASVGDRVTITCTASESLYSSKHKVHYLAWYQQKPGKAPKLLIYGASNRYFGVPSRFSGSGSGTDFTLTISSLQPEDFATYYCAQFYQYPLTFGGGTKVEIK
notes: scFv in periplasmic extract
B7: the OD450 in experiment [1] worked out at 0.6 OD450; in experiment [2], 0.08 OD450; in experiment [3] it was 1.39 OD450; in experiment [4], 0.06 OD450; in experiment [5], 0.06 OD450.

B8: PcOxP_DB02_B02 (scFv, V domains shown)
VH: EVQLLESGGGLVQPGGSLRLSCAASGFTFSDYYMEWVRQAPGKGLEWVAASRNSGNDYTTEYADSVKGRFTISRDNSKNTLYLQMNSLRAEDTAVYYCARDYYGSSYWYFDVWGQGTLVTVSS
VL: DIQMTQSPSSLSASVGDRVTITCTASESLYSSKHKVHYLAWYQQKPGKAPKLLIYGASNRLIGVPSRFSGSGSGTDFTLTISSLQPEDFATYYCAQFYWYPLTFGGGTKVEIK
notes: scFv in periplasmic extract
B8: the OD450 worked out at 0.49 OD450 in experiment [1]; 0.11 OD450 in experiment [2]; 0.98 OD450 in experiment [3]; 0.05 OD450 in experiment [4]; 0.05 OD450 in experiment [5].

B9: PcOxP_DB02_B10 (scFv, V domains shown)
VH: EVQLLESGGGLVQPGGSLRLSCAASGFTESDFYMEWVRQAPGKGLEWVAASRNKANDYTTEYADSVKGRFTISRDNSKNTLYLQMNSLRAEDTAVYYCARDYYGSSYWYFDVWGQGTLVTVSS
VL: DIQMTQSPSSLSASVGDRVTITCTASESLYSSKHKVHYLAWYQQKPGKAPKLLIYGASNRYIGVPSRFSGSGSGTDFTLTISSLQPEDFATYYCAQFYVYPLTFGGGTKVEIK
notes: scFv in periplasmic extract
Regarding B9, the OD450 in experiment [1] stood at 0.67 OD450; in experiment [2], 0.08 OD450; in experiment [3] it was 1.03 OD450; in experiment [4], 0.04 OD450; in experiment [5] it was 0.04 OD450.

B10: PcOxP_DB01_G12 (scFv, V domains shown)
VH: EVQLLESGGGLVQPGGSLRLSCAASGFTFSDGYMEWVRQAPGKGLEWVAASRNKANDYTTEYADSVKGRFTISRDNSKNTLYLQMNSLRAEDTAVYYCARDYYGSSYWYFDVWGQGTLVTVSS
VL: DIQMTQSPSSLSASVGDRVTITCTASESLYSSKHKVHYLAWYQQKPGKAPKLLIYGASNRYFGVPSRFSGSGSGTDFTLTISSLQPEDFATYYCAQFYSYPLTFGGGTKVEIK
notes: scFv in periplasmic extract
For the molecule B10, the OD450 in experiment [1] came to 0.75 OD450; in experiment [2], 0.09 OD450; in experiment [3], 1.33 OD450; in experiment [4], 0.07 OD450; in experiment [5] it was 0.06 OD450.

B11: PcOxP_DB02_A11 (scFv, V domains shown)
VH: EVQLLESGGGLVQPGGSLRLSCAASGFTFSDGYMEWVRQAPGKGLEWVAASRNIANDYTTEYADSVKGRFTISRDNSKNTLYLQMNSLRAEDTAVYYCARDYYGSSYWYFDVWGQGTLVTVSS
VL: DIQMTQSPSSLSASVGDRVTITCTASESLYSSKHKVHYLAWYQQKPGKAPKLLIYGASNRYHGVPSRFSGSGSGTDFTLTISSLQPEDFATYYCAQFYYYPLTFGGGTKVEIK
notes: scFv in periplasmic extract
As for B11, the OD450 in experiment [1] is 0.64 OD450; in experiment [2], 0.09 OD450; in experiment [3], 0.89 OD450; in experiment [4], 0.04 OD450; in experiment [5] it was 0.04 OD450.

B12: PcOxP_DB02_A09 (scFv, V domains shown)
VH: EVQLLESGGGLVQPGGSLRLSCAASGFTFSDTYMEWVRQAPGKGLEWVAASRNKANDYTTEYADSVKGRFTISRDNSKNTLYLQMNSLRAEDTAVYYCARDYYGSSYWYFDVWGQGTLVTVSS
VL: DIQMTQSPSSLSASVGDRVTITCTASESLYSSKHKVHYLAWYQQKPGKAPKLLIYGASNRQSGVPSRFSGSGSGTDFTLTISSLQPEDFATYYCAQFYWYPLTFGGGTKVEIK
notes: scFv in periplasmic extract
As to B12, the OD450 was found to be 0.98 OD450 in experiment [1]; 0.11 OD450 in experiment [2]; 1.3 OD450 in experiment [3]; 0.05 OD450 in experiment [4]; 0.04 OD450 in experiment [5].

B13: PcOxP_DB02_B12 (scFv, V domains shown)
VH: EVQLLESGGGLVQPGGSLRLSCAASGFTFSDYYMEWVRQAPGKGLEWVAASRNKANDYTTEYADSVKGRFTISRDNSKNTLYLQMNSLRAEDTAVYYCARDYYGSSYWYFDVWGQGTLVTVSS
VL: DIQMTQSPSSLSASVGDRVTITCTASESLYSSKHKVHYLAWYQQKPGKAPKLLIYGQSNRYIGVPSRFSGSGSGTDFTLTISSLQPEDFATYYCAQFYSYPLTFGGGTKVEIK
notes: scFv in periplasmic extract
Turning to B13, the OD450 came out at 2.33 OD450 in experiment [1]; 0.1 OD450 in experiment [2]; 1.34 OD450 in experiment [3]; 0.05 OD450 in experiment [4]; 0.04 OD450 in experiment [5].

B14: PcOxP_DB01_H04 (scFv, V domains shown)
VH: EVQLLESGGGLVQPGGSLRLSCAASGFAFSDFYMEWVRQAPGKGLEWVAASRNKANDYTTEYADSVKGRFTISRDNSKNTLYLQMNSLRAEDTAVYYCARDYYGSHYWYFDVWGQGTLVTVSS
VL: DIQMTQSPSSLSASVGDRVTITCTASESLYSSKHKVHYLAWYQQKPGKAPKLLIYGASNLQSGVPSRFSGSGSGTDFTLTISSLQPEDFATYYCAQFYYYPLTFGGGTKVEIK
notes: scFv in periplasmic extract
For the molecule B14, the OD450 in experiment [1] was 2.01 OD450; in experiment [2], 0.11 OD450; in experiment [3], 1.92 OD450; in experiment [4] it was 0.07 OD450; in experiment [5] it was 0.07 OD450.

B15: PcOxP_DB01_G11 (scFv, V domains shown)
VH: EVQLLESGGGLVQPGGSLRLSCAASGFTFSDGYMEWVRQAPGKGLEWVAASRNKNNDYTTEYADSVKGRFTISRDNSKNTLYLQMNSLRAEDTAVYYCARDYFGSSYWYFDVWGQGTLVTVSS
VL: DIQMTQSPSSLSASVGDRVTITCTASESLYSSKHKVHYLAWYQQKPGKAPKLLIYGASNRYIGVPSRFSGSGSGTDFTLTISSLQPEDFATYYCAQFYSYPLTFGGGTKVEIK
notes: scFv in periplasmic extract
As for B15, the OD450 in experiment [1] was found to be 0.99 OD450; in experiment [2], 0.09 OD450; in experiment [3] it was 1.32 OD450; in experiment [4] it was 0.06 OD450; in experiment [5], 0.06 OD450.
